In the NTF2 design screens of Basanta et al. (2020):

Assay: protease stability score; higher = more stable; yeast display proteolysis, trypsin and chymotrypsin;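 further: relative to predicted unfolded state with 0 unfolded-like and 1 meaning tenfold more protease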
For “DEEEELWKELSKLIIHEWRTGDEEIFARLFDPNAKMRHLVDGRDDQHVGREKTVHVLLKVLEDLGIKHIKHEHITIQGDWVHMHTTLNVDGREIKVEMHFVVINGKYKSVEERTK”, the protease stability score was 0.966.
“SEEEHEQENWARLMLHLFLTGDEEILLELFDPNVRSDVDGRKFHGRDEVSHAIRWILEHFGFKHSHVRHFEIYNGRVHSEVEINVDGVRLTLHIHLNIYNGRLKDSEFRLK” gave a protease stability score of 0.967.
In the case of “TEDEKIAKDTLEEITEALATGDEDQLNRLMDPNVKIFFNGQEIHGRHDSVKYWREIRIRDSHIIIRHVDIQGDKIRLDGEYQLRGEIDGQEIERTMHVRLFMHKVNGRWIVRRQVWG”, the protease stability score is reported as 1.56.
In the case of “DEHDEFLEISFKILKKTDDTGDERESRKLADPDARLHVNGVDFHGWEDFKKIMVDLGWRIEEIRIEHIRLVGDKIIIHERVRLRVGDKKRDLHFTIIALKINGRWHLRELHIE”, the protease stability score is reported as 1.38.
In the case of “DDMERHNRWFLRDLIHAIVTGDEELEERLFDPNAKVHIDGVTFIGRELVEFLRKRVDHRRMHVKRTDSQGEYLINHTELILHINGKDVRTDTVWIFHKFNGQWVVHTMEVK”, the protease stability score is reported as 0.815.
“DEIEEQSRRALHEYINKILTGDEKSLTDLMDPDARLIVGDKEVHGRKLVHEWMSQWTEHIRIKHVHLHDIEIIGEKVHLDMRLHGIINGKETEHKVELHMYKINGKWIIHTVKIL” gave a protease stability score of 2.04.
With “DEDEKKLHKLSDELEHIWLTGDEDRWLELADPNTKVIINGKEVHGRENVAREIKKFLEDLGIDHFYIESSLAIDGRTDLNGQIHVNGRTLHVRIINHEFNGRVKRVEIHIR” the protease stability score was 2.09.
“DTEERLLHEMLRYLLEWFITGDEELFARLADPNTRTNVNGRHFHGREEMARLLEKWWRDFGVKHVHIEHTRVQGDYLHIDTRLHIGDKDLHVHFKLLVIDGRIRSLEIIIR” gave a protease stability score of 0.689.
In the case of “DEEDERLHEFAKLFADLWFTGDEEELHDLIDPHAKLNVDVNGRILDSHGREEFVKVLRKLREHLGVDHVELKDMKVQGDKVIIHGVLIINGRRFDSTLWVYIFNGKIESMEVRMR”, the protease stability score is reported as 1.69.
Sequence “HEEHESLRRATRHELQTLETGDEDLFEKLVDPNYKVVINGVELHGMHELRRWIIELRIDDFELHDVNVVNGRASIDGTMHTHVNGQRLERKVRIHIEKINGRWVRREYIYH” has a protease stability score of 0.726.
“DEEEERMQEKLHRYLHDLVTGDEEEFHKYADPHVKTRVGDKILHGREKAREFWHEIRIKDIKLDHKDIQGDFVRLHVRVHGRINGQDIDFRVEIFFRKINGRWIIESQEIN” showed a protease stability score of 0.816.
Sequence “DEDEEKAKEAWEDIVRDIETGNEESMEKMLDPNTRLVVGEKERHGWESASKFVRELRHRVDHVELRLKDSKLYNGRVELDGLLIENFNGVEVRHKMIVFILKINGRWHIESVIIH” has a protease stability score of 1.44.
For “DETKEKVRIALELLETLHRTGDEDKFLELADPHYQLHINGQTVIGRETIYELLVRFLHHLGATSEVRIRSVDWQGDKIIVDMRLHFRVGDKSFEIQVHIYILKVNGKWLIESIEIR”, the protease stability score was 1.68.
With “DERTEVSEEFHRILIKVWRTGDETLSHQLADPHAKAEIGDKTIHGRDLWKEVFRRESERYDHYDSRLKDVKVQGDYINLDVHLILHVDGVPVRTDVIEIVLKFNGRWRLHSFHVK” the protease stability score was 0.684.
“DEREKDVEHWFQRLIEAQITGDEEEFDELADPNVLIEINGRELHGRDDFHKYLKRVDHFEIQHFRHHHRHIFDGKVYFNGHSELHVTVGDKRFRYEDEIHHISLKIDGRWILKSVHFA” gave a protease stability score of 0.635.
Sequence “TEEETETRNLLELFIRSLHTGDEDLTKRLLDPNVRLELGEWEAHGRESVSEVLRLLWELLGVKHIEHHVHDMRVFNGRVHADTRVIMVFDGREHRIETELIVVKIDGRWFIKSIHIR” has a protease stability score of 1.61.
Sequence “SEDERDIEHAVKVEIKSYETGDEKSWREYVDPHVRIEQGDFLFHGWEDAVKLYAKIKNLTLEVKDMKVYNGRVHSEGVFKFNGQSMETRLIIFKIDGQWIVHSIHIK” has a protease stability score of 1.82.
With “DELEKFIKYVATRLVHDWMTGDEETSKKLLDPHYKTRILYDGRYTELHGREIFVKFVRELLEEIRIHLEVDRIRPIGDKVLLDTRLEIRIGDKRIERSTELHYVVINGRVDQMELVFI” the protease stability score was 1.32.
In the case of “SEEHHDAERAMEEFLKVMNTGNEKLLRDLIDPNVRTEINGQEIIGWKSMHRIMREWGVDNIRVHLRRLEVQGEKLHLEEELNVNGRTSKMEIVALKINGRWVVSEIRFH”, the protease stability score is reported as 2.03.
Work on “DEEREFSERAIEMSLEDWLTGDEHRMHRMLDPHVRLDIDGRDIIGRERMTKIIFEINKTLGVDHVEFHDHEIQGDKVHSHLDVHINGRRLRITLHLYKIDGRWQIREVKVV” yielded a protease stability score of 1.13.
Sequence “EEDHSEVERRLEIILHKWETGDERILHHYLDPHAKFIINGREYHGRENALEHWVKSEEDLGVKHERLREYDFRYQGDKVELHTEIELHVGNKVFDIHIIIIARKVNGRWVIEEVRLEFR” has a protease stability score of 1.23.
In the case of “DQEHRDLHKLAHLILEYLVTGDFEMFEHLADPNVKVNINGKEMHGMERMREHLELIWKELRIHHLHITEVTIQGNKVEIDGRWDGKVNGQHRIEERHFYLVTVNGRIRHISEEIV”, the protease stability score is reported as 1.37.
With “SEEEELFRKLVNLFLRDVLTGDEESLIELMDPDVRVDINGRKNVGWEEVANTWKQMRIRDFEYREVEYYNGQARIHGVRDGNINGVDERTEIEISMSIVDGRLKHVRVHVR” the protease stability score was 2.09.
Work on “DEESKESHDIMRILLHIFRTGDEHKLKEMADPNTLFHIGDKEFHGREEFVHFLREVFEKIKNIKHRITDIKDVGDKIHVEVEEKVNGRHRHVELIWLVVDGKIQWYEIRIR” yielded a protease stability score of 1.23.
“SEFDRLSKEAVDILVHSLETGDWRSVSELFDPDYRLDVGDKRYHGREKVNEFMRHMGIKHVEIKRIHLQGDKAHIDSRMLVDGREFITHVIMEKVNGRWVITHISIE” gave a protease stability score of 1.01.
For “DEHEELLRRIFELLLHALKTGDEDLLYKMADPNTRSIIGDKIHHGMEEHRKAVEKWLREMGVKHIEIKRVHIQGEKIHIDTHWKVGDKSETVKINIHVIDGRLTEIHIEIE”, the protease stability score was 1.
Work on “SEYEDLIKTALHLWHEIFLTGNEDVLHRLIDPHVRVTFNGVRNHGRDYLLHHIEELGMEHHNFDISHVDMQGDKIILYTFLHAHVNGRTTSFQLHIFWIKVNGRWIVKRVEIR” yielded a protease stability score of 0.759.
With “SEEEEYVTKYTRHWLHSHVTGDEDYLRRYADPHVRVDINGREVHGRDEAAHFIERVLRHIREEHLDDRDFTVINGKSILHGELKISINGQEWRVNFDIIIVVVNGRFKREEVRVK” the protease stability score was 0.858.
With “DERQHHAENFHELFFRWVETGDWENQRELADPNMRVDLVVNGVELHDHGMDSFTKRLHELRLHHLDIRSVHYVNGRIDSDIRVDGVIDGRRIDTHMRLHLRVINGKMREIRIQID” the protease stability score was 1.33.
With “AEQHEQAREFLRNWLEAYHTGDEDLLRSMFDPNVRLHVDGRVIIGREDIIRERLHFLENHGITFHFRIQDMSVQGEKVIFDVEFHYRYNGQDYHKKVWLFVEKINGRWFMTQININ” the protease stability score was 2.19.
In the case of “SEKHEEVKRALELEVQLLRTGDEDIYANLADPNTRLLFDGVDIIGMEKVMEWLRFIHEHIRIRDLKIRRVRLIDGQVDVDSQIEGHVGDKHINIKHEIVVEKINGRWYIRSRHWH”, the protease stability score is reported as 1.52.
For “DEDWHKLEETMRRFAKAMLTGDEDDLRKLADPDYRLDVNGRDLHGMESVKHWLDELRLVINDVKVREVHVIDGRLYLDTQVHSIETINGVEIRFVTETHVVIRKIDGKWINREMSIK”, the protease stability score was 0.285.
For “DESERDMETFVRITMDELVTGNEESIEEMLDPNVRLEVNGRQFHGREDATRIISEWIKILGINHRRLEEIRFVDGRAEVIVEIRVGDKRSELILISLKVNGQWRMERFEIRNE”, the protease stability score was 2.09.
With “SEIDEIAHKMAKEWTKDFVTGDEDHWKRLADPNTRVHINGVELHGRETSSEFKEKLRRHMGVDHMELRVRHVDLFNGRVHMETELIYRVGDKEIRTETHVDLDIVNGRIKEVRYEIR” the protease stability score was 0.734.
Sequence “DEDEKVVKLVFNEIREARRTGDEEKLHELFDPHVRLEQGDKNIHGREYMITQWRELRFHDYRINITHRTTYNGVAKVDGEVSVDYRIDGVRFHDKFRIKIVILKFDGRWMIHSEHIE” has a protease stability score of 0.822.
For “SDEKKRLDDLAMTFLTLWMTGDWDHFARQADPHVRSDINGKELHGREIFVNFLREEMTRLGVDHFELHSVTVIDGKVHFDGEVDVNGVRHKTILWSVIFNGRIKSQEEEIR”, the protease stability score was 1.15.
In the case of “SEDEEVLEWAIKIVILALKTGDEDLFRKLADPTMRTEINGVILHGWKEVLRSLKELRVHHVRIERVEVINGRVHVDSREDVEFNGVRYETITHLVIEKVDGRWLMHSLKVE”, the protease stability score is reported as 2.06.
Sequence “DEMEEQIKRLIHLLAHYLRTGDEHSTEELADPNVRIHIDGKEYHGRELFIKFLHERLRHLGIKHIHIHIKDIREIDGRIHIDGELEQHIDGKERRMKQEMLVEKIDGQWHIKELEIE” has a protease stability score of 2.59.
Work on “DEETEILKKVVKEMRKIMHTGDEHEIHRYLDPNARLDVDGREVHGREALLEFLRKFKGMTVHIDDVEDIGDKIFIDHELRFDGVTRKSEIISNKINGRWHVESVHIR” yielded a protease stability score of 0.357.
Sequence “SEEEEHTHRISRRFWRFLVTGDEDALLKNADPHVRLVIGDKHSHGRENFKRLLREWLEELGAKHLHIRDLEVQGNKVHTHGEMTVNGRNIETHIELVVIDGRHHSMEFRIG” has a protease stability score of -0.021.
In the case of “SEEDRFLYEFARTILHLFETGNEEIFHKLADPHVRLHVNGVDNVGWERSYKFFHEEVRELRFHTWRIRDHRTFENRAHLDIEVDTEFNGVRLHLKSTLDVVVVNGRLKFFHIKQE”, the protease stability score is reported as 0.424.
In the case of “SEEDEMAEEMMRWFLEILETGNEELFNHYADPNVIDIVGDKRVHGMDRFSELHHIFLRHWRIHRRRENTIETYNGRAHIDGEIEGKVNGREKNIRVEIKLNVVNGVIKKVEVTYN”, the protease stability score is reported as 0.379.
With “SEDDDSAREILRILTEAWYTGNEDELIRLMDPNARSLFDGVEFHGRELVRLWKERVDHTHSIKVKLHSMRIIGNKLEVDGRLEQEGEINGRRFLIVVEVHLIILKVNGRWRMHSVEVR” the protease stability score was 1.68.
Sequence “DEEHEINRRIAEWWLHSVKTGDEESIENNADPNTRIVVNGVHFHGMEESHKWLHEFLRRFKNATLEIHSMEVINGVTHIHGTLVQGDKRIRVHIHVHVINGRIHTISHEHR” has a protease stability score of 1.27.
With “SEMEHQSRKILEDTLRQWLTGDWHSLHELMDPNTKLDVGDKHFHGREAVKVFLERADHVKDLQIDHMRIQGDKIETDVHMHVTVGDKEKDVEVELIVLKVNGKWLLRSASIK” the protease stability score was 1.22.
“SEEDEHAEHMLRLWLHAIETGDEKLLLELVDPHAKNDVNGVDLHGRHEVWRHVYEMLHKFKNIRWDITETRYIGDYVHIRGILRQGDKTHDIRIKVVSFNGRIKKVEIRIE” gave a protease stability score of 2.48.
In the case of “DDRERDLRELFKRLHEVLETGNEEEMTELIDPHARRTVGDKKIHGRELIAKHLVHEVLRYDHWHLEMHDWRFQGEKIELHGNFRIEVDGKQIVIDTRLTATKVDGRWRITEIRII”, the protease stability score is reported as 0.743.
“SELEDATEFAIKVLLEVLRTGDWLEFEKMVDPNVRSSINGVELHGRRRLSHEILREWMELGIKHLDVHLKHKELQGDKLILIVELRLDVNGREIRRETELILLKVDGRWLLTEVRVK” showed a protease stability score of 1.58.
“DEMRKYAHEYFKLLIELLLTGDEDSMLHNIDPNVRFDEHAENHRVHIHGMESLREWLDHFLKHAWITHIHESDSRVFNGRMHLIGHTRIYIDGKLEIKEIRIEFIVINGRITHYRVEVN” showed a protease stability score of 1.52.
With “SEDEKERDMIAELFVRSLVTGDEELIKDLIDPNVKLDIGDKSRHGRENFTRQILHFGVDHVDVTEMHVQGEKVNLRGNWNINGVDLDVINYVTKVNGKWLLTRVEIK” the protease stability score was 1.14.
